Results on one substance are retold here after patent publication US20020169291A1.

Assay [1] has as its target mature human IL-18 K89A mutant (human) (UniProt Q14116). Description: cell-based or functional assay.
Assay [2] deals with mature human IL-18 WT, generated by factor Xa cleavage of proIL-18 (ICE/Xa) (human) (UniProt Q14116). Kind of assay: cell-based or functional assay.
Chain of mature human IL-18 WT, generated by factor Xa cleavage of proIL-18 (ICE/Xa) (human) (Q14116 37-193 limits assumed): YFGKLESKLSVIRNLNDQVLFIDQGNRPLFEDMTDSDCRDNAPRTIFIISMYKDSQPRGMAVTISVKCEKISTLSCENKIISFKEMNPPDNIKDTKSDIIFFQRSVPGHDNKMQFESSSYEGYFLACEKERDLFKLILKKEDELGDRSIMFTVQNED

Chain of mature human IL-18 K89A mutant (human) (Q14116 37-193 K89A): as the sequence (Q14116 37-193 limits assumed) above, with K53A counted along it

In assay [1], “"a" isoform of CHO cell produced recombinant his-6-tagged human IL-18BP (from UniProt O95998 31-194)” gave an IL-18BP concentration giving a statistically significant reduction of IFN-γ co-induction in NKO cells of 120 ng/mL and an IL-18BP concentration that neutralized IFN-γ induction in PBMCs of 120 ng/mL. Besides, in assay [2], the 50% inhibitory concentration of IL-18BP for co-induction of IFN-γ from NKO cells came out at 15 ng/mL and the amount of IL-18BP needed to neutralize IFN-γ induction in PBMCs turned out to be 3.7 ng/mL.
